Broadly, the Km is the substrate concentration at which the rate is half of its maximum.

Substrate in data set [1]: CC(=O)N[C@H]1[C@@H](OP(=O)(O)OP(=O)(O)OC[C@H]2O[C@@H](n3ccc(=O)[nH]c3=O)[C@H](O)[C@@H]2O)O[C@H](CO)[C@@H](O)[C@@H]1O
The experiment in a line: purified protein. The note with it: UDP-GlcA fixed at 2.5 mM, Mg2+, 37 °C, GDN detergent.

Substrate in data set [2]: O=C(O)[C@H]1O[C@H](OP(=O)(O)OP(=O)(O)OC[C@H]2O[C@@H](n3ccc(=O)[nH]c3=O)[C@H](O)[C@@H]2O)[C@H](O)[C@@H](O)[C@@H]1O
The experiment in a line: purified protein. The note with it: UDP-GlcNAc fixed at 2.5 mM, Mg2+, 37 °C, GDN detergent.

B1: Xl-HAS-1 (Xenopus laevis) (protein)
chain: MKEKAAETMEIPEGIPKDLEPKHPTLWRIIYYSFGVVLLATITAAYVAEFQVLKHEAILFSLGLYGLAMLLHLMMQSLFAFLEIRRVNKSELPCSFKKTVALTIAGYQENPEYLIKCLESCKYVKYPKDKLKIILVIDGNTEDDAYMMEMFKDVFHGEDVGTYVWKGNYHTVKKPEETNKGSCPEVSKPLNEDEGINMVEELVRNKRCVCIMQQWGGKREVMYTAFQAIGTSVDYVQVCDSDTKLDELATVEMVKVLESNDMYGAVGGDVRILNPYDSFISFMSSLRYWMAFNVERACQSYFDCVSCISGPLGMYRNNILQVFLEAWYRQKFLGTYCTLGDDRHLTNRVLSMGYRTKYTHKSRAFSETPSLYLRWLNQQTRWTKSYFREWLYNAQWWHKHHIWMTYESVVSFIFPFFITATVIRLIYAGTIWNVVWLLLCIQIMSLFKSIYACWLRGNFIMLLMSLYSMLYMTGLLPSKYFALLTLNKTGWGTSGRKKIVGNYMPILPLSIWAAVLCGGVGYSIYMDCQNDWSTPEKQKEMYHLLYGCVGYVMYWVIMAVMYWVWVKRCCRKRSQTVTLVHDIPDMCV
Consider B1, for which the Km in “purified protein [1]” came to 470 µM; in “purified protein [2]” it was 370 µM.

Source of the values: paper doi:10.1101/2023.05.11.540447v1.
